Test [1] has as its target T1, mOrai1-hOrai1 ECL2 (SPTKPPAE) protein (human/mouse chimera, UniProt Q8BWG9 1-304 (mouse entry)).
T1 construct: also called Ch
In words: FACS, 293EBNA. Further details: concentration or dose not given beside the values. The source says:
(§1) FIG. 16A-D illustrates the results of FACS analysis showing binding to the indicated mOrai1-hOrai1 ECL2 chimeric mutants expressed on the surface of HEK-293-EBNA cells. Transfected cells were stained first with recombinant monoclonal antibodies then counter-stained with a secondary phycoerythrin-labeled goat (“Gt”) anti-human (“Hu”) IgG F(ab′)₂ antibody fragment and visualized using FACS. In FIG. 16B and FIG. 16D, The values of Relative Fluorescence Intensity as Percent of Control (RFI-POC) are calculated from the relative fluorescence intensity geometric mean (Geo Mean). The geometric mean is an average calculated by multiplying a series of numbers and taking the nth root where n is the number of numbers in the series. It is a statistical average of a set of transformed numbers often used to represent a central tendency in a highly variable data set that minimizes the effects of extreme values.
(§2) Table 11A and Table 11B feature a schematic representation of the POC data from FIG. 16B and FIG. 16D, respectively, where the binding results are recorded as (+++) denoting binding POC from 40% to 100%, (++) for POC of 5% to less than 40%, (+) for POC from 1% to less than 5% and (−) as lack of binding with POC less than 1%.

Test [2] has as its target T2, mOrai1-hOrai1 ECL2 (KPPAE) protein (human/mouse chimera, UniProt Q8BWG9 1-304 (mouse entry)).
T2 construct: also called Ch
Briefly: FACS, 293EBNA. Also noted: concentration or dose not given beside the values.
Source text: as §1, §2
(Flow cytometry measures light scatter and fluorescence of single cells or particles in a stream.)

Test [3] concerns the target T3, mOrai1-hOrai1 ECL2 (AESVIV) protein (human/mouse chimera, UniProt Q8BWG9 1-304 (mouse entry)).
T3 construct: also called Ch
In words: FACS, 293EBNA. Further details: concentration or dose not given beside the values.
Source text: as §1, §2

The target in test [4] is T4, mOrai1-hOrai1 ECL2 (…) protein (human/mouse chimera, UniProt Q8BWG9 1-304 (mouse entry)).
T4 construct: also called Ch
Briefly: FACS, 293EBNA. Also noted: concentration or dose not given beside the values.
Source text: as §1, §2
T4 sequence (Q8BWG9 other isoform, or with tags, fused parts or gaps): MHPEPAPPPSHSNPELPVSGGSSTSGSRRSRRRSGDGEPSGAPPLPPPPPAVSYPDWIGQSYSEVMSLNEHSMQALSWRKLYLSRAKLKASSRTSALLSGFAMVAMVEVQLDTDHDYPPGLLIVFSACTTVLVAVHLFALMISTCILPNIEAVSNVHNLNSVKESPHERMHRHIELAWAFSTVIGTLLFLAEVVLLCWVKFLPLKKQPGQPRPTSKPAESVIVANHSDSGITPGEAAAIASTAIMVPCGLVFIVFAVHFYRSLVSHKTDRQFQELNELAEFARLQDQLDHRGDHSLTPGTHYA

The target of test [5] is T5, mOrai1-hOrai1 ECL2 (…) protein (human/mouse chimera, UniProt Q8BWG9 1-304 (mouse entry)).
T5 construct: also called Ch
In words: FACS, 293EBNA. Also noted: concentration or dose not given beside the values.
Source text: as §1, §2
T5 sequence (Q8BWG9 other isoform, or with tags, fused parts or gaps): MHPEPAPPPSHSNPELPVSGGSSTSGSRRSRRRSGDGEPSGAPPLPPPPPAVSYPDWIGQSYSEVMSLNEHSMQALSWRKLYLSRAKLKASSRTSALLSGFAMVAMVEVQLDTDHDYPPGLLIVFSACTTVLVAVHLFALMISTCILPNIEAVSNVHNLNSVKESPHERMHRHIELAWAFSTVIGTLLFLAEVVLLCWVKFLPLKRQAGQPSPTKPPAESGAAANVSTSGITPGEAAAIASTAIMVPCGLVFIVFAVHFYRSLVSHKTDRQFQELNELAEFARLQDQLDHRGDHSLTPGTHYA
The source holds these as a separate data set.

In test [6] the target is T6, mOrai1-hOrai1 ECL2 (…) protein (human/mouse chimera, UniProt Q8BWG9 1-304 (mouse entry)).
T6 construct: also called Ch
Briefly: FACS, 293EBNA. Further details: concentration or dose not given beside the values.
Source text: as §1, §2
T6 sequence (Q8BWG9 other isoform, or with tags, fused parts or gaps): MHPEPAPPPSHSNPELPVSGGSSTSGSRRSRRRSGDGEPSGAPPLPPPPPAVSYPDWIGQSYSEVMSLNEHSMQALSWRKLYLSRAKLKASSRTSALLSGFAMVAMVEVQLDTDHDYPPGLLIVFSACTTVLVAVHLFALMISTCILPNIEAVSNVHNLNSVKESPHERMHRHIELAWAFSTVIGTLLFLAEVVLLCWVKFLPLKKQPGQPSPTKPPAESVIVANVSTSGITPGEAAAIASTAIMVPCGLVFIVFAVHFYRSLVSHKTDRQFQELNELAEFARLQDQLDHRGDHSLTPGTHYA
The source holds these as a separate data set.

In test [7] the target is T7, hOrai1-mOrai1 ECL2 chimeric protein (human/mouse chimera, UniProt Q96D31 1-301).
T7 construct: human Orai1 with mouse ECL2; also called Ch
T7 sequence (Q96D31 other isoform, or with tags, fused parts or gaps mutant): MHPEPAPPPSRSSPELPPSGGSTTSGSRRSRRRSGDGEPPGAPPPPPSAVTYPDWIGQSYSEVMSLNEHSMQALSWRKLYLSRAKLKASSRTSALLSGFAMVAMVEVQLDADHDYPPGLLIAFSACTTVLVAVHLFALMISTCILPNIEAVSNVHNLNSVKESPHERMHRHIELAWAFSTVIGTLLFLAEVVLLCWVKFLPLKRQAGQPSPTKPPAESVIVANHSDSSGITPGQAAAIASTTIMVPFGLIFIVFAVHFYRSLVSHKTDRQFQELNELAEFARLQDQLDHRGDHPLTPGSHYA
In words: FACS, 293EBNA. Also noted: concentration or dose not given beside the values.
Source text: as §1, §2

Test [8] has as its target T8, mOrai1-hOrai1 ECL2 (…) protein (human/mouse chimera, UniProt Q8BWG9 1-304 (mouse entry)).
T8 construct: also called Ch
In words: FACS, 293EBNA. Further details: concentration or dose not given beside the values.
Source text: as §1, §2
T8 sequence (Q8BWG9 other isoform, or with tags, fused parts or gaps): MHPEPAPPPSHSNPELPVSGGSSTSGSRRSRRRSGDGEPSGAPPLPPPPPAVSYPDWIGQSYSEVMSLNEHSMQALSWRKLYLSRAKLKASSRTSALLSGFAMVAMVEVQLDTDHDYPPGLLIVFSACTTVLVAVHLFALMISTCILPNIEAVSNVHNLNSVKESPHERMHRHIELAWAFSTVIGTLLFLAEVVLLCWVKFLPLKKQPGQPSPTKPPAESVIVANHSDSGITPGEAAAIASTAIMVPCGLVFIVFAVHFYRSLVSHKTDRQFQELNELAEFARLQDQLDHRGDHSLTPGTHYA
This is another data set of the same source.

The target of test [9] is T9, hOrai1-mOrai1 ECL2 (…) protein (human/mouse chimera, UniProt Q96D31 1-301).
T9 construct: also called Ch
T9 sequence (Q96D31 other isoform, or with tags, fused parts or gaps): as the sequence (Q96D31 other isoform, or with tags, fused parts or gaps mutant) above, with A216P, E217A, V219G, I220A, V221A, H224V, D226T counted along it
In words: FACS, 293EBNA. Further details: concentration or dose not given beside the values. The source says:
(§3) FIG. 17A-D illustrates the results of FACS analysis showing binding to the indicated mOrai1-hOrai1 ECL2 chimeric mutants expressed on the surface of HEK-293-EBNA cells. Transfected cells were stained first with recombinant monoclonal antibodies then counter-stained with a secondary phycoerythrin-labeled goat (“Gt”) anti-human (“Hu”) IgG F(ab′)₂ antibody fragment and visualized using FACS.
(§4) Representative results of FACS analysis of binding to the mutant hOrai1-mOrai1 ECL2 chimera described above by exemplary anti-hOrai1 antibodies of the present invention are shown in FIG. 17A-D, Table 10A and Table 10B below. Table 10A (Campaign 1) and Table 10B (Campaign 2) show the gain in binding ability of exemplary monoclonal antibodies to hOrai 1-mOrai 1 ECL2 chimera mutants as determined by FACS.

For test [10], the target named is T10, hOrai1-mOrai1 ECL2 (VST) protein (human/mouse chimera, UniProt Q96D31 1-301).
T10 construct: also called Ch
T10 sequence (Q96D31 other isoform, or with tags, fused parts or gaps): as the sequence (Q96D31 other isoform, or with tags, fused parts or gaps mutant) above, with H224V, D226T counted along it
Briefly: FACS, 293EBNA. Also noted: concentration or dose not given beside the values.
Source text: as §3, §4

For test [11], the target named is T11, hOrai1-mOrai1 ECL2 (PASGAA) protein (human/mouse chimera, UniProt Q96D31 1-301).
T11 construct: also called Ch
T11 sequence (Q96D31 other isoform, or with tags, fused parts or gaps): as the sequence (Q96D31 other isoform, or with tags, fused parts or gaps mutant) above, with A216P, E217A, V219G, I220A, V221A counted along it
In words: FACS, 293EBNA. Further details: concentration or dose not given beside the values.
Source text: as §3, §4

Test [12] has as its target T12, hOrai1-mOrai1 ECL2 (AANVST) protein (human/mouse chimera, UniProt Q96D31 1-301).
T12 construct: also called Ch
In words: FACS, 293EBNA. Further details: concentration or dose not given beside the values.
Source text: as §3, §4

Test [13] deals with T13, hOrai1-mOrai1 ECL2 (GAA) protein (human/mouse chimera, UniProt Q96D31 1-301).
T13 construct: also called Ch
T13 sequence (Q96D31 other isoform, or with tags, fused parts or gaps): as the sequence (Q96D31 other isoform, or with tags, fused parts or gaps mutant) above, with V219G, I220A, V221A counted along it
In words: FACS, 293EBNA. Also noted: concentration or dose not given beside the values.
Source text: as §3, §4

In test [14] the target is T7, hOrai1-mOrai1 ECL2 chimeric protein. Briefly: FACS, 293EBNA. Further details: concentration or dose not given beside the values.
Source text: as §3, §4
The source holds these as a separate data set.

Another test has as its target T14, human Orai1 (human, UniProt Q96D31 1-301).
T14 construct: on AM1-CHO/hOrai1/hSTIM1-YFP, AM1/hOrai1, HEK-293 transfectants, endogenous on Jurkat and blood cells; in Westerns from cell lysates; also called hOrai1; CRACM1
Briefly: FACS Kd, AM1-CHO/hOrai1/hSTIM1-YFP cells. A digest of the protocol: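 Cells from equilibrium plates washed in ice-cold D-PBS/2% FBS, stained with goat anti-human Fc Cy5 (5 μg/mL, 1 h on ice, dark), analysed by flow cytometry. Live-cell GeoMean gives bound antibody; its inverse serves as free antigen. Kd from n-curve fitting at two cell concentrations in KinExA.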

Some results are limits rather than exact numbers.

One may read the Kd as the constant that tells how readily two partners part at equilibrium.

T3 sequence (Q8BWG9 other isoform, or with tags, fused parts or gaps): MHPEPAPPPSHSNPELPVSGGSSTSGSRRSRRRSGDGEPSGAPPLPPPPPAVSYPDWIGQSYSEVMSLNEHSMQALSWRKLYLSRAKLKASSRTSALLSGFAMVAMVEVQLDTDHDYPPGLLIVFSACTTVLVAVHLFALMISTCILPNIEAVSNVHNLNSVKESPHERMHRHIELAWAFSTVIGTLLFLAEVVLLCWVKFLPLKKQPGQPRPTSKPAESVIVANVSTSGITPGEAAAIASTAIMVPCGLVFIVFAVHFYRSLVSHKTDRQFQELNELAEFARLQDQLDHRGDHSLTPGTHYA
T14 sequence (Q96D31 whole entry): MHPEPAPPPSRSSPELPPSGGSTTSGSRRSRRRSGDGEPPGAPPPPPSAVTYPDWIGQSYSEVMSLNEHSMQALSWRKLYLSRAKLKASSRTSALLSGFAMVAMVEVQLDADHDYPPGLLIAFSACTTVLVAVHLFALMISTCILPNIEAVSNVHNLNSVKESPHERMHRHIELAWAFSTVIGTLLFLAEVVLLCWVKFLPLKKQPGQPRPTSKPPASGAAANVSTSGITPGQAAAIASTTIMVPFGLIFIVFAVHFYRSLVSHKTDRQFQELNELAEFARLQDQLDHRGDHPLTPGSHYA
T1 sequence (Q8BWG9 other isoform, or with tags, fused parts or gaps): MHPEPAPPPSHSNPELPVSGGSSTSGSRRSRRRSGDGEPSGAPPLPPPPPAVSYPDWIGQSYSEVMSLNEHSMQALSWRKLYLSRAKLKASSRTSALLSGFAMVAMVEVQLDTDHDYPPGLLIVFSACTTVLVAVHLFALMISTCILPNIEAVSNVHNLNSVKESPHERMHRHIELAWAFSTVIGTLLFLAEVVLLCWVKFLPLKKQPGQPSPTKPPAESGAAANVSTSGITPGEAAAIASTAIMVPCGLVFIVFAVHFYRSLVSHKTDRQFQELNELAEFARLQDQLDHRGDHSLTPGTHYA
T2 sequence (Q8BWG9 other isoform, or with tags, fused parts or gaps): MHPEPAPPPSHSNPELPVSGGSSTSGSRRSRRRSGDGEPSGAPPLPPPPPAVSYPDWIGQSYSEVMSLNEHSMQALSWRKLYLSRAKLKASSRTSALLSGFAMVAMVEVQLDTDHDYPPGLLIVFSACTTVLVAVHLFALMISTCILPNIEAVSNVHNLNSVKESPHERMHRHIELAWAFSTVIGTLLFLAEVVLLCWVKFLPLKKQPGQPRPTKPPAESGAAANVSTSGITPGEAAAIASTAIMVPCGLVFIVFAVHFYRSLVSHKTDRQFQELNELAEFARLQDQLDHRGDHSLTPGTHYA
T12 sequence (Q96D31 other isoform, or with tags, fused parts or gaps): as the sequence (Q96D31 other isoform, or with tags, fused parts or gaps mutant) above, with V221A, H224V, D226T counted along it

B1: mAb 5A4.2 (antibody, human IgG2, lambda, V domains shown)
VH: QVQLVQSGAEVKKPGASVKVSCKASGYTFTDYYMNWVRQAPGQGLEWMGWINPNSGGTKYAQKFQGRVTMTRDTSIRTAYMELSRLRSDDTAVYYCSREYGGNSDWFDPWGQGTLVTVSS
VL: QSVLTQPPSVSGAPGQRVTISCTGSSSNIGAGYDVHWYQQLPGTAPKLLIYGNSNRPSGVPDRFSGSKSGTSASLAITGLQAEDEADYYCQSYDNRLSDSVVIGGGTKLTVQG
notes: fully human IgG2 lambda, Campaign 2
Take B1: the “POC (percent of control, FACS Geo Mean relative to binding to Ch. 1)” value in test [1], in test [2], in test [3], in test [4], in [5] and in [6] was less than 1% throughout. Besides, the “POC (percent of control, FACS Geo Mean relative to binding to Ch. 1)” value in test [7] and in test [8] was less than 1% throughout. Further, the “percent of control (POC) of FACS Geo Mean” value in test [9], in test [10], in [11], in test [12], in [13] and in test [14] was less than 1% throughout. The molecule also had a Kd with human Orai1 of 1.2 nM.

B2: mAb 5F2.1 (antibody, human IgG2, lambda, V domains shown)
VH: QVQLVQSGAEVKKPGASVKVSCKASGYTFTDYYMNWVRQAPGQGLEWMGWINPNSGGTHYAQKFQGRVTMTRDTSISTAYMELSRLRSDDTAVYYCAREYGGYSDWFDPWGQGTLVTVSS
VL: QSVLTQPPSVSGAPGQRVTISCTGSRSNIGAGYDVHWYQQLPRTAPKLLIYDNSNRPSGVPDRFSGSKSGSSASLAITGLQAEDEADYYCQSYDNSLSDSVLIGGGTKLTVLG
notes: as for B1
Regarding B2, the “POC (percent of control, FACS Geo Mean relative to binding to Ch. 1)” value in test [1], in test [2], in test [3], in test [4], in [5] and in test [6] was less than 1% throughout. Moreover, the “POC (percent of control, FACS Geo Mean relative to binding to Ch. 1)” value in test [7] and in test [8] was less than 1% throughout. The “percent of control (POC) of FACS Geo Mean” value in test [9], in test [10], in test [11], in test [12], in test [13] and in test [14] was less than 1% throughout. The molecule also showed a Kd in the test with human Orai1 of 0.767 nM.

(Values after patent publication US20120231006A1 (Amgen, published 2012).)
